Experimental data taken from publication PMC5572259, “The C-terminal Six Amino Acids of the FNT Channel FocA Are Required for Formate Translocation But Not Homopentamer Integrity” (Frontiers in Microbiology, 2017).
Several values for one entry are separate records, joined by “and”; a condition that tells them apart may be missing. Equal entries are not always repeated.

B1: FocA5E281 (FocA truncation variant ending with E281, lacking N282, D283, H284 and H285) (domain or fragment, Escherichia coli, UniProt P0AC23 1-281, looked up)
chain: MKADNPFDLLLPAAMAKVAEEAGVYKATKHPLKTFYLAITAGVFISIAFVFYITATTGTGTMPFGMAKLVGGICFSLGLILCVVCGADLFTSTVLIVVAKASGRITWGQLAKNWLNVYFGNLVGALLFVLLMWLSGEYMTANGQWGLNVLQTADHKVHHTFIEAVCLGILANLMVCLAVWMSYSGRSLMDKAFIMVLPVAMFVASGFEHSIANMFMIPMGIVIRDFASPEFWTAVGSAPENFSHLTVMNFITDNLIPVTIGNIIGGGLLVGLTYWVIYLRE
notes: source: E. coli BL21(DE3) with pfocA5E281, membrane fraction solubilised with DDM, purified (Strep-Tactin-Sepharose); not shown: Strep-tag II, N-terminal, kept
B2: FocA5L279 (FocA truncation variant ending with L279, lacking R280, E281, N282, D283, H284 and H285) (domain or fragment, Escherichia coli, UniProt P0AC23 1-279, looked up)
chain: MKADNPFDLLLPAAMAKVAEEAGVYKATKHPLKTFYLAITAGVFISIAFVFYITATTGTGTMPFGMAKLVGGICFSLGLILCVVCGADLFTSTVLIVVAKASGRITWGQLAKNWLNVYFGNLVGALLFVLLMWLSGEYMTANGQWGLNVLQTADHKVHHTFIEAVCLGILANLMVCLAVWMSYSGRSLMDKAFIMVLPVAMFVASGFEHSIANMFMIPMGIVIRDFASPEFWTAVGSAPENFSHLTVMNFITDNLIPVTIGNIIGGGLLVGLTYWVIYL
notes: FocA, Escherichia coli, stop codon at codon 280 (lacking R280, E281, N282, D283, H284 and H285); also called FocAL279; source: E. coli BL21(DE3) with pfocAL279 (pfocA5L279), membrane fraction solubilised with DDM, purified (Strep-Tactin-Sepharose); not shown: Strep-tag II, N-terminal, kept
B3: FocA5H284 (FocA truncation variant ending with H284, lacking H285) (domain or fragment, Escherichia coli, UniProt P0AC23 1-284, looked up)
chain: MKADNPFDLLLPAAMAKVAEEAGVYKATKHPLKTFYLAITAGVFISIAFVFYITATTGTGTMPFGMAKLVGGICFSLGLILCVVCGADLFTSTVLIVVAKASGRITWGQLAKNWLNVYFGNLVGALLFVLLMWLSGEYMTANGQWGLNVLQTADHKVHHTFIEAVCLGILANLMVCLAVWMSYSGRSLMDKAFIMVLPVAMFVASGFEHSIANMFMIPMGIVIRDFASPEFWTAVGSAPENFSHLTVMNFITDNLIPVTIGNIIGGGLLVGLTYWVIYLRENDH
notes: FocA, Escherichia coli, stop codon at codon 285 (lacking H285); source: E. coli BL21(DE3) with pfocA5H284, membrane fraction solubilised with DDM, purified (Strep-Tactin-Sepharose); not shown: Strep-tag II, N-terminal, kept
B4: FocA5D283 (FocA truncation variant ending with D283, lacking H284 and H285) (domain or fragment, Escherichia coli, UniProt P0AC23 1-283, looked up)
chain: MKADNPFDLLLPAAMAKVAEEAGVYKATKHPLKTFYLAITAGVFISIAFVFYITATTGTGTMPFGMAKLVGGICFSLGLILCVVCGADLFTSTVLIVVAKASGRITWGQLAKNWLNVYFGNLVGALLFVLLMWLSGEYMTANGQWGLNVLQTADHKVHHTFIEAVCLGILANLMVCLAVWMSYSGRSLMDKAFIMVLPVAMFVASGFEHSIANMFMIPMGIVIRDFASPEFWTAVGSAPENFSHLTVMNFITDNLIPVTIGNIIGGGLLVGLTYWVIYLREND
notes: source: E. coli BL21(DE3) with pfocA5D283, membrane fraction solubilised with DDM, purified (Strep-Tactin-Sepharose); not shown: Strep-tag II, N-terminal, kept
B5: FocA5N282 (FocA truncation variant ending with N282, lacking D283, H284 and H285) (domain or fragment, Escherichia coli, UniProt P0AC23 1-282, looked up)
chain: MKADNPFDLLLPAAMAKVAEEAGVYKATKHPLKTFYLAITAGVFISIAFVFYITATTGTGTMPFGMAKLVGGICFSLGLILCVVCGADLFTSTVLIVVAKASGRITWGQLAKNWLNVYFGNLVGALLFVLLMWLSGEYMTANGQWGLNVLQTADHKVHHTFIEAVCLGILANLMVCLAVWMSYSGRSLMDKAFIMVLPVAMFVASGFEHSIANMFMIPMGIVIRDFASPEFWTAVGSAPENFSHLTVMNFITDNLIPVTIGNIIGGGLLVGLTYWVIYLREN
notes: FocA, Escherichia coli, stop codon at codon 283 (lacking D283, H284 and H285); source: E. coli BL21(DE3) with pfocA5N282, membrane fraction solubilised with DDM, purified (Strep-Tactin-Sepharose); not shown: Strep-tag II, N-terminal, kept
B6: FocA5R280 (FocA truncation variant ending with R280, lacking E281, N282, D283, H284 and H285) (domain or fragment, Escherichia coli, UniProt P0AC23 1-280, looked up)
chain: MKADNPFDLLLPAAMAKVAEEAGVYKATKHPLKTFYLAITAGVFISIAFVFYITATTGTGTMPFGMAKLVGGICFSLGLILCVVCGADLFTSTVLIVVAKASGRITWGQLAKNWLNVYFGNLVGALLFVLLMWLSGEYMTANGQWGLNVLQTADHKVHHTFIEAVCLGILANLMVCLAVWMSYSGRSLMDKAFIMVLPVAMFVASGFEHSIANMFMIPMGIVIRDFASPEFWTAVGSAPENFSHLTVMNFITDNLIPVTIGNIIGGGLLVGLTYWVIYLR
notes: FocA, Escherichia coli, stop codon at codon 281 (lacking E281, N282, D283, H284 and H285); also called FocAR280; source: E. coli BL21(DE3) with pfocA5R280, membrane fraction solubilised with DDM, purified (Strep-Tactin-Sepharose); not shown: Strep-tag II, N-terminal, kept
B7: N-terminally Strep-tagged FocA (native, full-length formate channel FocA of Escherichia coli) (natural protein, UniProt P0AC23 1-285, looked up)
chain: MKADNPFDLLLPAAMAKVAEEAGVYKATKHPLKTFYLAITAGVFISIAFVFYITATTGTGTMPFGMAKLVGGICFSLGLILCVVCGADLFTSTVLIVVAKASGRITWGQLAKNWLNVYFGNLVGALLFVLLMWLSGEYMTANGQWGLNVLQTADHKVHHTFIEAVCLGILANLMVCLAVWMSYSGRSLMDKAFIMVLPVAMFVASGFEHSIANMFMIPMGIVIRDFASPEFWTAVGSAPENFSHLTVMNFITDNLIPVTIGNIIGGGLLVGLTYWVIYLRENDHH
notes: Formate channel FocA, Escherichia coli, full length (ends with H285; C-terminal residues after R280 are ENDHH); Kept in 2 mM DDM after purification; also called FocA5; native FocA5; source: E. coli BL21(DE3) with pfocA5 (pASK-IBA5focA), membrane fraction solubilised with DDM, purified (Strep-Tactin-Sepharose); not shown: Strep-tag II, N-terminal, kept

Molecular target: the molecule itself
Experiment: native gel or EMSA; blue-native PAGE, 5-13.5% (w/v polyacrylamide) gradient gel, 5 ug of purified DDM-solubilised FocA variant per lane

| Protein | stoichiometry N |
| --- | --- |
| B1 | 5 |
| B2 | 5 and 10 |
| B3 | 10 and 5 |
| B4 | 5 |
| B5 | 10 and 5 |
| B6 | 10 and 5 |
| B7 | 5 and 10 |
